According to CN110845607A (UNIV WEIFANG MEDICAL; SHANDONG KUANHEZHENG BIOMEDICINE CO …, dated 2020):

Molecular target: 牛血清蛋白 (BSA) (bovine, UniProt P02769 25-607)
Experiment: ELISA

Sequence of 牛血清蛋白 (BSA) (P02769 25-607 limits assumed): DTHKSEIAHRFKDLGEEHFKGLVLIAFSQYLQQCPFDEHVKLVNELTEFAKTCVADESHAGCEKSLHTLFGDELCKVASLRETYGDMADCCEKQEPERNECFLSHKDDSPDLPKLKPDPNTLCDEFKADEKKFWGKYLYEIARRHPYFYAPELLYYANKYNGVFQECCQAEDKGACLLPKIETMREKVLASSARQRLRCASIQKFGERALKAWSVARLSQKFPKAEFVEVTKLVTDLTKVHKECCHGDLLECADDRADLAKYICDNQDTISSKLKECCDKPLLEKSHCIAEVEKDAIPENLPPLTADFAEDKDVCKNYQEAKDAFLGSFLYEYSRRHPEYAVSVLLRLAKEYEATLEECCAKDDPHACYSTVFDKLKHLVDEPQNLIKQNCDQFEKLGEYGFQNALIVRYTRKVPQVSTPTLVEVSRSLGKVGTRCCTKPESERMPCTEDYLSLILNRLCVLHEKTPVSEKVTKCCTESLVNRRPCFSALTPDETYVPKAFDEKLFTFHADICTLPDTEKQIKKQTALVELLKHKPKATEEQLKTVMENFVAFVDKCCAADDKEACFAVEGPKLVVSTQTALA

B1: F1 Fab片段 (purified Fab fragment of anti-H1N1 monoclonal antibody F1) (Fab, V domains shown)
VH: QVQLKESGDDLVKPGASVKLSCKASGYTFTNYWINWIKQRPGQGLEWIGRTAPGSGSTYYNELFKGKATLTVDTSSSTAYIQLSSLSSEDSAVYFCALSTGTGALDYWGQGTSVTVS
VL: DIVMTQSPLSLPVSLGDQASISCRSSQSLVHSNGNTYLHWYLQKPGQSPKLLIYKVSNRFSGVPDRFSGSGSGTDFTLKISRVEAEDLGVYFCSQSTHVPWTFGGGTKLEIKR
notes: also called 抗体F1Fab; 单克隆抗体F1
binding result: no binding
